Molecular target: the molecule itself
Test: self-assembly into a homododecamer; gel filtration and negative stain electron microscopy

B1: MjTET (TET aminopeptidase of Methanocaldococcus jannaschii, product of gene MJ0555) (enzyme)
chain: MSVVEYLKKLSKLHGISGREDSVREFMKKELEKYCDSVEIDNFGNLIAKRGNKGKKIMIAAHMDEIGLMVKYIDDNGFLKFTKIGGIYDPTILNQKVVVHGSKGDLIGVLGSKPPHRMKEEEKTKIIKYEDMFIDIGAESREEAIEMGVNIGTWVSFLSEVYDLGKNRLTGKAFDDRVGCAVLLEVMKRLSEEDIDCQVYAVGTVQEEVGLKGARVSAFKINPDVAIALDVTIAGDHPGIKKEDAPVDLGKGPVVGIVDASGRGLIAHPKVLDMIKAVSEKYKIDVQWEVGEGGTTDATAIHLTREGIPTGVISVPARYIHTPVEVIDKRDLEKTVELVYNCIKEVNNFF
notes: Untagged recombinant form made in E. coli; It forms a tetrahedral homododecamer; Activity assays were run with 0.1 mM CoCl2; also called MJ0555 protein; TET protein
B1: binds.
